Where a chain is given by its changes, count along the chain named. Names may count otherwise.
B1: VH SEQ ID NO 634 / VL SEQ ID NO 390 (antibody, IgG4, V domains shown)
VH: QVQLQESGPGLVKPSQTLSLTCTVSGYSISSDSAWSWIRQPPGKGLEWIGYIQYSGSTNYNPSLKSRVTISRDTSKNQFSLKLSSVTAADTAVYYCARSVNYYGNSFAVGYWGQGTLVTVSS
VL: EIVLTQSPATLSLSPGERATLSCRASQGVSDYLAWYQQKPGEAPRLLIKYASQPATGIPARFSGSGSGTDFTLTISSLEPEDFAVYYCQNGHSFPLTFGQGTKLEIK
notes: humanized 11F2; IgG4 S228P/kappa
B2: VH SEQ ID NO 634 / VL SEQ ID NO 398 (antibody, IgG4, V domains shown)
VH: B1 VH
VL: B1 VL with A51T
notes: as for B1
B3: VH SEQ ID NO 634 / VL SEQ ID NO 406 (antibody, IgG4, V domains shown)
VH: B1 VH
VL: B1 VL with E42Q, Q100A
notes: as for B1
B4: VH SEQ ID NO 634 / VL SEQ ID NO 414 (antibody, IgG4, V domains shown)
VH: B1 VH
VL: B1 VL with E42Q
notes: as for B1
B5: VH SEQ ID NO 634 / VL SEQ ID NO 422 (antibody, IgG4, V domains shown)
VH: B1 VH
VL: B1 VL with E42Q, N90Q
notes: as for B1
B6: VH SEQ ID NO 634 / VL SEQ ID NO 430 (antibody, IgG4, V domains shown)
VH: B1 VH
VL: B1 VL with E42Q, A84G
notes: as for B1
B7: VH SEQ ID NO 634 / VL SEQ ID NO 438 (antibody, IgG4, V domains shown)
VH: B1 VH
VL: B1 VL with E42Q, F83V
notes: as for B1
B8: VH SEQ ID NO 634 / VL SEQ ID NO 446 (antibody, IgG4, V domains shown)
VH: B1 VH
VL: B1 VL with E42Q, A51T
notes: as for B1
B9: VH SEQ ID NO 634 / VL SEQ ID NO 454 (antibody, IgG4, V domains shown)
VH: B1 VH
VL: B1 VL with A34H
notes: as for B1
B10: VH SEQ ID NO 634 / VL SEQ ID NO 462 (antibody, IgG4, V domains shown)
VH: B1 VH
VL: B1 VL with A34H, E42Q, Q100A
notes: as for B1
B11: VH SEQ ID NO 634 / VL SEQ ID NO 470 (antibody, IgG4, V domains shown)
VH: B1 VH
VL: B1 VL with A34H, E42Q
notes: as for B1
B12: VH SEQ ID NO 634 / VL SEQ ID NO 478 (antibody, IgG4, V domains shown)
VH: B1 VH
VL: B1 VL with A34H, E42Q, N90Q
notes: as for B1
B13: VH SEQ ID NO 634 / VL SEQ ID NO 486 (antibody, IgG4, V domains shown)
VH: B1 VH
VL: B1 VL with A34H, E42Q, A84G
notes: as for B1
B14: VH SEQ ID NO 634 / VL SEQ ID NO 494 (antibody, IgG4, V domains shown)
VH: B1 VH
VL: B1 VL with A34H, E42Q, F83V
notes: as for B1
B15: VH SEQ ID NO 634 / VL SEQ ID NO 502 (antibody, IgG4, V domains shown)
VH: B1 VH
VL: B1 VL with A34H, E42Q, A51T
notes: as for B1
B16: VH SEQ ID NO 642 / VL SEQ ID NO 310 (antibody, IgG4, V domains shown)
VH: B1 VH with Q53Y, R72V, L117S
VL: B1 VL with V29I, E42Q
notes: as for B1
B17: VH SEQ ID NO 642 / VL SEQ ID NO 318 (antibody, IgG4, V domains shown)
VH: B1 VH with Q53Y, R72V, L117S
VL: B1 VL with V29I, A34H, A51T
notes: as for B1
B18: VH SEQ ID NO 642 / VL SEQ ID NO 326 (antibody, IgG4, V domains shown)
VH: B1 VH with Q53Y, R72V, L117S
VL: B1 VL with V29I, A34H, A51T, A84G, Q100A, I106L
notes: as for B1
B19: VH SEQ ID NO 642 / VL SEQ ID NO 334 (antibody, IgG4, V domains shown)
VH: B1 VH with Q53Y, R72V, L117S
VL: B1 VL with V29I, A34H, E42Q
notes: as for B1
B20: VH SEQ ID NO 642 / VL SEQ ID NO 342 (antibody, IgG4, V domains shown)
VH: B1 VH with Q53Y, R72V, L117S
VL: B1 VL with V29I, A34H, E42Q, A51T, T69R, Q100A, I106L
notes: as for B1
B21: VH SEQ ID NO 642 / VL SEQ ID NO 350 (antibody, IgG4, V domains shown)
VH: B1 VH with Q53Y, R72V, L117S
VL: B1 VL with V29I, A34H, E42Q, A51T, Q100A, I106L
notes: as for B1
B22: VH SEQ ID NO 642 / VL SEQ ID NO 358 (antibody, IgG4, V domains shown)
VH: B1 VH with Q53Y, R72V, L117S
VL: B1 VL with V29I, A34H, E42Q, A51T
notes: as for B1
B23: VH SEQ ID NO 642 / VL SEQ ID NO 382 (antibody, IgG4, V domains shown)
VH: B1 VH with Q53Y, R72V, L117S
VL: B1 VL with V29L, A34H
notes: as for B1
B24: VH SEQ ID NO 642 / VL SEQ ID NO 430 (antibody, IgG4, V domains shown)
VH: B1 VH with Q53Y, R72V, L117S
VL: B1 VL with E42Q, A84G
notes: as for B1
B25: VH SEQ ID NO 642 / VL SEQ ID NO 438 (antibody, IgG4, V domains shown)
VH: B1 VH with Q53Y, R72V, L117S
VL: B1 VL with E42Q, F83V
notes: as for B1
B26: VH SEQ ID NO 642 / VL SEQ ID NO 454 (antibody, IgG4, V domains shown)
VH: B1 VH with Q53Y, R72V, L117S
VL: B1 VL with A34H
notes: as for B1
B27: VH SEQ ID NO 642 / VL SEQ ID NO 462 (antibody, IgG4, V domains shown)
VH: B1 VH with Q53Y, R72V, L117S
VL: B1 VL with A34H, E42Q, Q100A
notes: as for B1
B28: VH SEQ ID NO 642 / VL SEQ ID NO 470 (antibody, IgG4, V domains shown)
VH: B1 VH with Q53Y, R72V, L117S
VL: B1 VL with A34H, E42Q
notes: as for B1
B29: VH SEQ ID NO 642 / VL SEQ ID NO 478 (antibody, IgG4, V domains shown)
VH: B1 VH with Q53Y, R72V, L117S
VL: B1 VL with A34H, E42Q, N90Q
notes: as for B1
B30: VH SEQ ID NO 642 / VL SEQ ID NO 486 (antibody, IgG4, V domains shown)
VH: B1 VH with Q53Y, R72V, L117S
VL: B1 VL with A34H, E42Q, A84G
notes: as for B1
B31: VH SEQ ID NO 642 / VL SEQ ID NO 494 (antibody, IgG4, V domains shown)
VH: B1 VH with Q53Y, R72V, L117S
VL: B1 VL with A34H, E42Q, F83V
notes: as for B1
B32: VH SEQ ID NO 642 / VL SEQ ID NO 502 (antibody, IgG4, V domains shown)
VH: B1 VH with Q53Y, R72V, L117S
VL: B1 VL with A34H, E42Q, A51T
notes: as for B1
B33: VH SEQ ID NO 650 / VL SEQ ID NO 310 (antibody, IgG4, V domains shown)
VH: B1 VH with G45K, Y111P
VL: B1 VL with V29I, E42Q
notes: as for B1
B34: VH SEQ ID NO 650 / VL SEQ ID NO 318 (antibody, IgG4, V domains shown)
VH: B1 VH with G45K, Y111P
VL: B1 VL with V29I, A34H, A51T
notes: as for B1
B35: VH SEQ ID NO 650 / VL SEQ ID NO 326 (antibody, IgG4, V domains shown)
VH: B1 VH with G45K, Y111P
VL: B1 VL with V29I, A34H, A51T, A84G, Q100A, I106L
notes: as for B1
B36: VH SEQ ID NO 650 / VL SEQ ID NO 334 (antibody, IgG4, V domains shown)
VH: B1 VH with G45K, Y111P
VL: B1 VL with V29I, A34H, E42Q
notes: as for B1
B37: VH SEQ ID NO 650 / VL SEQ ID NO 342 (antibody, IgG4, V domains shown)
VH: B1 VH with G45K, Y111P
VL: B1 VL with V29I, A34H, E42Q, A51T, T69R, Q100A, I106L
notes: as for B1
B38: VH SEQ ID NO 650 / VL SEQ ID NO 350 (antibody, IgG4, V domains shown)
VH: B1 VH with G45K, Y111P
VL: B1 VL with V29I, A34H, E42Q, A51T, Q100A, I106L
notes: as for B1
B39: VH SEQ ID NO 650 / VL SEQ ID NO 358 (antibody, IgG4, V domains shown)
VH: B1 VH with G45K, Y111P
VL: B1 VL with V29I, A34H, E42Q, A51T
notes: as for B1
B40: VH SEQ ID NO 650 / VL SEQ ID NO 366 (antibody, IgG4, V domains shown)
VH: B1 VH with G45K, Y111P
VL: B1 VL with V29L
notes: as for B1
B41: VH SEQ ID NO 650 / VL SEQ ID NO 374 (antibody, IgG4, V domains shown)
VH: B1 VH with G45K, Y111P
VL: B1 VL with V29L, E42Q, A51T
notes: as for B1
B42: VH SEQ ID NO 650 / VL SEQ ID NO 382 (antibody, IgG4, V domains shown)
VH: B1 VH with G45K, Y111P
VL: B1 VL with V29L, A34H
notes: as for B1
B43: VH SEQ ID NO 650 / VL SEQ ID NO 390 (antibody, IgG4, V domains shown)
VH: B1 VH with G45K, Y111P
VL: B1 VL
notes: as for B1
B44: VH SEQ ID NO 650 / VL SEQ ID NO 398 (antibody, IgG4, V domains shown)
VH: B1 VH with G45K, Y111P
VL: B1 VL with A51T
notes: as for B1
B45: VH SEQ ID NO 650 / VL SEQ ID NO 406 (antibody, IgG4, V domains shown)
VH: B1 VH with G45K, Y111P
VL: B1 VL with E42Q, Q100A
notes: as for B1

target: T1, recombinant human activated Factor VII (FVIIa) (human, UniProt P08709 61-212; P08709 213-466, ten glutamate residues of the Gla domain may be gamma-carboxylated); assay: BLI (Fortebio)
T1 construct: chains tethered by a disulfide bond; also called Factor VIIa; rFVIIa
T1 sequence 1: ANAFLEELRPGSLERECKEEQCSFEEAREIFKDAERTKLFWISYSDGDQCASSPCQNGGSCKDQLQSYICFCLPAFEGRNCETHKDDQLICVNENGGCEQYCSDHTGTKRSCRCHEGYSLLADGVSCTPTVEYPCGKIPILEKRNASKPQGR
T1 sequence 2: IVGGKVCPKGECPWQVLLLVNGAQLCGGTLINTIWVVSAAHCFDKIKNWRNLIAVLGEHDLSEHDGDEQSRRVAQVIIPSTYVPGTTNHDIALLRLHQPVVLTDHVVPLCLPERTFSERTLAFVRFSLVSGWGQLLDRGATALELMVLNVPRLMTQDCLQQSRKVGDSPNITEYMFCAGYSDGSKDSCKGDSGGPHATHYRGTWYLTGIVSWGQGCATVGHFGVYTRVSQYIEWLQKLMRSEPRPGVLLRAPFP

In order of falling Kd:
1. B16  1600 nM
2. B19  1000 nM
3. B23  600 nM
4. B24  540 nM
5. B22  320 nM
6. B45  180 nM
7. B21  120 nM
8. B43  99 nM
9. B17  81 nM
10. B44  55 nM
11. B27  52 nM
12. B28  47 nM
13. B41  46 nM
14. B20  40 nM
15. B40  35 nM
16. B25  33 nM
17. B5  26 nM
18. B26  25 nM
19. B18  23 nM
20. B33  16 nM
21. B29  11 nM
22. B31  10 nM
23. B2  8.2 nM
24. B8  7.7 nM
25. B30  7.7 nM
26. B6  4.9 nM
27. B7  4.8 nM
28. B4  4.6 nM
29. B32  4.6 nM
30. B1  4.3 nM
31. B3  4.2 nM
32. B42  1.9 nM
33. B12  1.8 nM
34. B37  1.6 nM
35. B36  1.5 nM
36. B13  1.4 nM
37. B14  1.3 nM
38. B15  1.3 nM
39. B9  1.2 nM
40. B10  1.2 nM
41. B34  1.2 nM
42. B35  1.1 nM
43. B39  1.1 nM
44. B11  1 nM
45. B38  0.99 nM
